The target of this test is T1, ElaB (E. coli, UniProt P0AEH5 1-101).
T1 construct: ElaB, E. coli, paralogue of YqjD, inner membrane-associated; source: endogenous, E. coli (MG1665) lysate, log phase and stationary phase
T1 sequence (looked up): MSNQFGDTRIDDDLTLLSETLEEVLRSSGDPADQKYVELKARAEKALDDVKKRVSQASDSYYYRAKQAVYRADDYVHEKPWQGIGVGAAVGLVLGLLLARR
As to the kind of experiment: cross-linking; quantitative CXMS: log phase and stationary phase E. coli (MG1665) lysates (100 µg each, 50 mM HEPES pH 8.0, 150 mM NaCl) cross-linked with [d0]-/[d6]-bAL2 at RT for 1 hr, forward and reverse labelling; pLink, pQuant. As to conditions: partners not purified.

B1: YqjD (natural protein, E. coli, UniProt P64581 1-101, looked up)
chain: MSKEHTTEHLRAELKSLSDTLEEVLSSSGEKSKEELSKIRSKAEQALKQSRYRLGETGDAIAKQTRVAAARADEYVRENPWTGVGIGAAIGVVLGVLLSRR
notes: source: endogenous, E. coli (MG1665) lysate, log phase and stationary phase
For the molecule B1, the “fold increase of the cross-link in the stationary phase over the log phase” value was at least 10 fold.

Source of the values: paper PMC4811778 (eLife, 2016).
